Columns and labels:
mouse METAP1(1-79) = mouse METAP1(1-79) (mouse, UniProt Q8BP48 1-79); test: other fluorescence titration
mouse METAP1(1-59) = mouse METAP1(1-59) (mouse, UniProt Q8BP48 1-59); test: other fluorescence titration
[1] = target: zebrafish MBP-Metap1, full length (zebrafish, UniProt Q4QRK0 1-386); test: pull-down

Binder: Ac-EEDPAEEDCPELVPIETTQSE-NH2 [human ZNG1 N-terminal peptide, synthetic]
- Kd (mouse METAP1(1-79)): ~100 nM
- stoichiometry N (mouse METAP1(1-79)): 1
- Kd (mouse METAP1(1-59)): ~100 nM
- stoichiometry N (mouse METAP1(1-59)): 1

Binder: Ac-MEDEDECPELVPIKEKPSG-NH2 [zebrafish Zng1 N-terminal peptide, synthetic]
- Kd (mouse METAP1(1-79)): ~100 nM
- stoichiometry N (mouse METAP1(1-79)): 1
- Kd (mouse METAP1(1-59)): ~100 nM
- stoichiometry N (mouse METAP1(1-59)): 1

B1: zebrafish Zng1, full length, purified (natural protein)
chain: not shown
- binding result [1]: binds

Source: paper PMC9189065 (Cell, 2022)
